Experiments:
Assay in all cases: IEDB peptide-MHC binding, purified MHC/competitive/radioactivity; filed as Kd, often an IC50 or EC50 that approximates it; ≥ and ≤ were set here for values at or beyond the usual limits of such assays
HLA-A*03:01 = target: HLA-A*03:01
HLA-A*11:01 = target: HLA-A*11:01
HLA-A*31:01 = target: HLA-A*31:01
HLA-A*33:01 = target: HLA-A*33:01
HLA-A*68:01 = target: HLA-A*68:01
[1] = source organism: Vaccinia virus WR
[2] = source organism: Mammarenavirus whitewaterense
[3] = source organism: SARS coronavirus Tor2
[4] = source organism: Lymphocytic choriomeningitis virus (strain Armstrong)
[5] = source organism: Mammarenavirus lassaense
[6] = source organism: Mammarenavirus brazilense

| Sequence | Kd (HLA-A*03:01; [1]) [nM] | Kd (HLA-A*11:01; [1]) [nM] | Kd (HLA-A*31:01; [1]) [nM] | Kd (HLA-A*33:01; [1]) [nM] | Kd (HLA-A*68:01; [1]) [nM] | also measured |
| --- | --- | --- | --- | --- | --- | --- |
| ASKKDKLTVY | 6590 | 1220 | 5290 | ≥ 70000 | ≥ 70200 | – |
| IVHSYLKNYK | 97.3 | 58 | 27.5 | 9720 | 257 | – |
| YANCSSISIK | 452 | 115 | 4310 | 18100 | 51.7 | – |
| SRIFEDLVWK | – | – | – | – | – | Kd (HLA-A*03:01; [2]): 872 nM; Kd (HLA-A*11:01; [2]): 620 nM; Kd (HLA-A*31:01; [2]): 8380 nM; Kd (HLA-A*33:01; [2]): ≥ 59100 nM; Kd (HLA-A*68:01; [2]): 572 nM |
| KTSKTTILSK | 44.4 | 96.4 | 311 | ≥ 70000 | 3960 | – |
| PVYISQFSY | 16300 | 1750 | ≥ 25900 | 16200 | ≥ 22400 | – |
| VTLAILTALR | – | – | – | – | – | Kd (HLA-A*03:01; [3]): 218 nM; Kd (HLA-A*11:01; [3]): 149 nM; Kd (HLA-A*31:01; [3]): 13.4 nM; Kd (HLA-A*33:01; [3]): 310 nM; Kd (HLA-A*68:01; [3]): 14.1 nM |
| ILSDIISAEK | 0.501 | 0.829 | 14.5 | 1380 | 4.29 | – |
| AAYYFMKFRR | – | – | – | – | – | Kd (HLA-A*03:01; [3]): 3050 nM; Kd (HLA-A*11:01; [3]): 132 nM; Kd (HLA-A*31:01; [3]): 41 nM; Kd (HLA-A*33:01; [3]): 277 nM; Kd (HLA-A*68:01; [3]): 79.2 nM |
| SLENLDPDNK | 2920 | 6.89 | 17000 | ≥ 22400 | 1360 | – |
| SLNSMYTRLR | 47.2 | 1780 | 0.291 | 0.997 | 81.2 | – |
| IMLEGETKLY | 1610 | 5110 | ≥ 55800 | ≥ 41100 | 1010 | – |
| YSKLTKDRK | ≥ 78000 | 4850 | 4320 | ≥ 23900 | 52.3 | – |
| TYLGPLSCK | – | – | – | – | – | Kd (HLA-A*03:01; [4]): 165 nM; Kd (HLA-A*11:01; [4]): 21.3 nM; Kd (HLA-A*31:01; [4]): 1690 nM; Kd (HLA-A*33:01; [4]): 154 nM; Kd (HLA-A*68:01; [4]): 375 nM |
| QSYKETVHK | 21.7 | 43.4 | 5550 | ≥ 77700 | 37.6 | – |
| AALDGTFQR | 6210 | 2.62 | 36.4 | 177 | 1.95 | – |
| NQATTKTTFK | – | – | – | – | – | Kd (HLA-A*03:01; [3]): 378 nM; Kd (HLA-A*11:01; [3]): 440 nM; Kd (HLA-A*31:01; [3]): 4270 nM; Kd (HLA-A*33:01; [3]): ≥ 26500 nM; Kd (HLA-A*68:01; [3]): 506 nM |
| MLTNAISSR | 13.1 | 4110 | 9.57 | 237 | 13.4 | – |
| ASITPNNLNK | 1.29 | 1.11 | 47.6 | ≥ 29800 | 6.94 | – |
| MLEGETKLYK | 20.6 | 63.4 | ≥ 50400 | ≥ 70000 | 9180 | – |
| TVVIGTSKFY | – | – | – | – | – | Kd (HLA-A*03:01; [3]): 1100 nM; Kd (HLA-A*11:01; [3]): 809 nM; Kd (HLA-A*31:01; [3]): 1860 nM; Kd (HLA-A*33:01; [3]): 1240 nM; Kd (HLA-A*68:01; [3]): 1500 nM |
| VINAPIKEFK | 4.87 | 1.31 | 227 | 83.8 | 6.75 | – |
| NIAEYIAGLK | 132 | 518 | ≥ 70000 | ≥ 25200 | 14.5 | – |
| LSCTKNTSHH | – | – | – | – | – | Kd (HLA-A*03:01; [5]): ≥ 70000 nM; Kd (HLA-A*11:01; [5]): ≥ 69700 nM; Kd (HLA-A*31:01; [5]): ≥ 43100 nM; Kd (HLA-A*33:01; [5]): ≥ 70000 nM; Kd (HLA-A*68:01; [5]): ≥ 43700 nM |
| GLTPEQKAY | ≥ 78000 | ≥ 56300 | ≥ 77900 | ≥ 77700 | 15000 | – |
| FKVAFSKHYK | – | – | – | – | – | Kd (HLA-A*03:01; [6]): 279 nM; Kd (HLA-A*11:01; [6]): 2140 nM; Kd (HLA-A*31:01; [6]): 48.3 nM; Kd (HLA-A*33:01; [6]): 3190 nM; Kd (HLA-A*68:01; [6]): 582 nM |
| ATIQRFSSLR | 23.4 | 4.64 | 0.626 | 244 | 6.84 | – |
| FLLRHYYNK | 7.31 | 27.1 | 76.4 | 2050 | 1340 | – |
| IAEFVKENER | ≥ 70100 | ≥ 30700 | 1690 | 5580 | 169 | – |
| ALINLVQYR | 6500 | 3920 | 137 | 17400 | 258 | – |

— the Immune Epitope Database (IEDB)
